Source: publication PMC4648099
Several values for one entry are separate records, joined by “and”; a condition that tells them apart may be missing. Equal values may be shown once.

Target: thrombin (alpha-thrombin) (UniProt P00734+P00734)
Assay: competition (FAM fluorescence displacement)
Details: G8 replaced by 5-nitroindole (N at position 8); Fluorescence assays: 10 mM sodium cacodylate pH 7.2, 100 mM KCl, 20 °C, 20 nM FAM-aptamer (100 nM thrombin in displacement); EMSA: 1xTBE pH 8.3, 100 mM KCl …

GGTTGGTNTGGTTGG [TBA-N8]
Kd: 2.3 nM and 1.7 nM
